Source: the supplement of paper PMC12764529
± gives the half width of the 95% confidence interval.

What was measured:
[1] = folding stability dG unfold from trypsin proteolysis; higher = more stable
Outline: (§1)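 Digests were run with trypsin and chymotrypsin at 11 concentrations in threefold dilutions, plus a no-protease condition, on designed mini-proteins in a PA-tagged cDNA display construct. The mini-proteins were under 80 residues, had no cysteine, and were kept only when AlphaFold2 dimer inter-PAE was above 15. After sequencing, Bayesian fitting of the counts gave K50, from which unfolding free energy was derived against a sequence-predicted unfolded-state K50 and a shared folded-state K50, per protease or combined.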

[2] = folding stability dG unfold from chymotrypsin proteolysis; higher = more stable
Outline: as §1

[3] = folding stability dG unfold (combined trypsin and chymotrypsin); higher = more stable
Outline: as §1

Sequence | folding stability dG unfold [1] | folding stability dG unfold [2] | folding stability dG unfold [3]
SAGGSAGGTLTIDELKELFPDVTEVKIEEKEETYTDKNGKKRKVKTKVIKVKVNGKEVTIEVKESAGGSAGG [r6_138_TrROS_Hall] | 1.96 ± 0.05 kcal/mol | 0.534 ± 0.13 kcal/mol | 1.25 ± 0.19 kcal/mol
SAGGSAGGTPKLAETRKNGKKVLAPVEVDPETGVITVTPPDGTTEVVPASRPPPFIEEDPSLGSSAGGSAGG [r6_174_JUSTAS] | -0.252 ± 0.042 kcal/mol | 1.44 ± 0.037 kcal/mol | 1.03 ± 0.087 kcal/mol
SAGGSAGGVEPVVVGRVPVVVRDPATGELREAEILRALPDGTLFIRFPNGERAEIRGAPVLSLASAGGSAGG [r6_433_TrMRF] | 1.07 ± 0.035 kcal/mol | 1.54 ± 0.096 kcal/mol | 1.35 ± 0.086 kcal/mol
SAGGSAGGWYVRITTNNGNQISIHLEELGLPEESFKEMTEEDLAEYLSKLFPGRPIKIEPVPLPSAGGSAGG [r6_165_TrROS] | 3.07 ± 0.14 kcal/mol | 3.35 ± 0.11 kcal/mol | 3.14 ± 0.14 kcal/mol
SAGGSAGGYIVKIKMPKFPHVFIFPPEMPPKQFADEIRRRFGNPDAPITDITIQPVTPEELKKLSAGGSAGG [r6_122_TrROS] | 0.787 ± 0.059 kcal/mol | 1.4 ± 0.12 kcal/mol | 1.16 ± 0.12 kcal/mol
SAGGSAGILEKTIKLAEELGLPVVEAKVVKKKNKVYVFFKSKKSKKYVIEIDGDKITIKPYSVVKKSAGGSA [r15_901_TrMRF] | 1.954 ± 0.014 kcal/mol | 2.99 ± 0.05 kcal/mol | 2.68 ± 0.059 kcal/mol
SAGGSAGKITIPARVKITLTPPNGPTVTFDAIITRVEDNSIELILGNVPITIPPNAKNVTITSVEGSAGGSA [r15_510_TrMRF] | 1.45 ± 0.018 kcal/mol | 1.53 ± 0.022 kcal/mol | 1.49 ± 0.052 kcal/mol
SAGGSAGKTKIEIRPLPDGSYLVLVTSPDGSKSEFIADGPDIPLPELLKKLNLPPDIEVVNAELPESAGGSA [r15_167_TrMRF] | 2.98 ± 0.12 kcal/mol | 3.05 ± 0.056 kcal/mol | 2.98 ± 0.13 kcal/mol
SAGGSAGLAEAILREAASAGIPLENVRIVDVRAFVTPDAVVFRARIEYRLPNSTSLAYADAVVPAPSAGGSA [r15_863_TrMRF] | 1.42 ± 0.026 kcal/mol | 1.82 ± 0.086 kcal/mol | 1.69 ± 0.073 kcal/mol
SAGGSAGMNRVSLKPLPDGTYEVTITYPDGSTSTYTVPGPAVSLEEILKRLNIPESIEVEDVEPLGSAGGSA [r15_167_JUSTAS] | 2.64 ± 0.089 kcal/mol | 3.87 ± 0.059 kcal/mol | 3.52 ± 0.075 kcal/mol
SAGGSAGMPDIIYKVKITVTSSGKVTTLDITLPSEEEVKKAIEELKKKGYTNIKPEIEKFLKSELGSAGGSA [r15_1015_JUSTAS] | 1.15 ± 0.12 kcal/mol | 2.13 ± 0.066 kcal/mol | 2 ± 0.19 kcal/mol
SAGGSAGMPSPVLLDVTIANPDGTTSTVTAPYASPEVAEAYVRENYPDAEVTYDPATGRVSVNVPSSAGGSA [r15_313_JUSTAS] | 2.31 ± 0.092 kcal/mol | 2.09 ± 0.033 kcal/mol | 2.2 ± 0.054 kcal/mol
SAGGSAGMTVTKTFTLPGYKVELTTHPGLPPDAPVTIEVTLTPPDGSVVKSTRTVLARPDDPSVLLSAGGSA [r15_10_JUSTAS] | 2.15 ± 0.13 kcal/mol | 2.73 ± 0.12 kcal/mol | 2.46 ± 0.16 kcal/mol
SAGGSAGMVSLTTTTTPVETRTLPDGTVVTLEKTELPDDTVVLTTTTTDPATGEVTTETTTVSLAGSAGGSA [r15_401_JUSTAS] | 0.409 ± 0.026 kcal/mol | 1.11 ± 0.022 kcal/mol | 0.884 ± 0.11 kcal/mol
SAGGSAGNPVPKVTVTDVTFGIPESDPSLLEKKAEEVAAELNKPELTVTITEYDPATYTFTITVVSSAGGSA [r15_563_JUSTAS] | 0.648 ± 0.021 kcal/mol | 1.89 ± 0.07 kcal/mol | 1.48 ± 0.059 kcal/mol
SAGGSAGPTTTPTTYARITATLRKGGETITVELEVPTSVVEEAVEALAKELGVEIEKVEVTLTEERSAGGSA [r15_535_JUSTAS] | 2.08 ± 0.027 kcal/mol | 2.4 ± 0.042 kcal/mol | 2.3 ± 0.08 kcal/mol
SAGGSAGQKIQIERVQWNPEEGYFFIRIRYPGNGREIEHHIRLDNIEIELPPGAKITDIEIYPLPNSAGGSA [r15_959_TrROS] | 1.8 ± 0.079 kcal/mol | 1.83 ± 0.12 kcal/mol | 1.96 ± 0.13 kcal/mol
SAGGSAGSLSPIGEHPYTLPDGSRITVPIYRDPATGEIVVEVETETEEEDISEKAEEYAEKVREALSAGGSA [r15_529_JUSTAS] | -0.0147 ± 0.048 kcal/mol | -0.571 ± 0.45 kcal/mol | -0.25 ± 0.14 kcal/mol

Sequence | folding stability dG unfold [1] | folding stability dG unfold [2] | folding stability dG unfold [3]
SAGGSAGSMPVEVTVTITVKDKNGTVLGTFPIKITVTSEEELEAKIKELKEKLKKEGYIVEKVDVVSAGGSA [r15_1054_JUSTAS] | 3.85 ± 0.17 kcal/mol | 2.65 ± 0.041 kcal/mol | 3.24 ± 0.091 kcal/mol
SAGGSAGTITIMFPIPPGKEVKMKFLFYIPDGYIFNVDITQTGPGYITITIPIYRLPENAKDPDLISAGGSA [r15_909_TrROS] | 3.2 ± 0.3 kcal/mol | 4.78 ± 0.18 kcal/mol | 4.43 ± 0.26 kcal/mol
SAGGSAGTVKFKQPFPFYDPGNGWPFPIDIKITVEYKPDPNGEPKWQITKIEIKMPEGSPALKDLISAGGSA [r15_258_TrROS] | 1.82 ± 0.11 kcal/mol | 2.24 ± 0.048 kcal/mol | 2 ± 0.14 kcal/mol
SAGGSAGVKSSSPNGLTLEFPFESEEEVEEAVKEIKKAFPENYEVKIEIEKSEKILKVKIIVKKKDSAGGSA [r15_80_TrMRF] | 1.08 ± 0.04 kcal/mol | 2.14 ± 0.061 kcal/mol | 1.9 ± 0.091 kcal/mol
SAGGSAGVVKGRIEITFVVPPDAPGVEELARETVKRIGFDAENVEILKVERLPDGSYRVTLLLDAPSAGGSA [r15_654_TrMRF] | 3.17 ± 0.059 kcal/mol | 4.47 ± 0.052 kcal/mol | 4.21 ± 0.071 kcal/mol
SAGGSAGWVTFDILFPGKTIEEAKEFIEQIPPEFMNNIKKIEIDEIHPVGGWYHVTLTIEVPPGMKSAGGSA [r15_244_TrROS] | 0.743 ± 0.14 kcal/mol | 2.06 ± 0.049 kcal/mol | 1.71 ± 0.16 kcal/mol
SAGGSAIEPGQKVLVLFPEDGGLATLTFDPTTRTVEIEVGGERRTYPVDSLQDVLDELGAEVLSTDSAGGSA [r15_500_TrMRF] | 2.12 ± 0.037 kcal/mol | 1.74 ± 0.037 kcal/mol | 1.82 ± 0.072 kcal/mol
SAGGSAIPFPPGAKVKKIEMHEKKDDNKPRYVMIIKWEGGNIMVFQMDPGDGNFKPIGWVPLDDLKSAGGSA [r15_777_TrROS] | 0.508 ± 0.07 kcal/mol | 2.33 ± 0.058 kcal/mol | 1.95 ± 0.12 kcal/mol
SAGGSAIPPDNVKEEREITDPDDDTKIKVWRYPNDGRYWVQVYNKKGEPKWKQLGPMPANQAEDLISAGGSA [r15_295_TrROS] | 0.0985 ± 0.35 kcal/mol | -0.31 ± 0.38 kcal/mol | -0.057 ± 0.23 kcal/mol
SAGGSAISEEEPFVKIKVELESEPKEIILPKSDIVKIEVDEPDKIATIYLPSTGKFFPFKVLSVENSAGGSA [r15_495_TrMRF] | 0.332 ± 0.079 kcal/mol | -0.343 ± 0.44 kcal/mol | -0.0342 ± 0.27 kcal/mol
SAGGSAITLEDLKNAEIVKPEVMPFPDNGMWMPTWKLRDPGNGKEFVFTFMYNPGNGEPQWSLVPVSAGGSA [r15_170_TrROS] | 1.16 ± 0.053 kcal/mol | 1.36 ± 0.1 kcal/mol | 1.2 ± 0.15 kcal/mol
SAGGSAKAEEIAKLLKELGFKEVKIEKDKETNKVTITVKKKDGSEIKITIDKKTKKIVKIEIKPKKSAGGSA [r15_648_TrROS_Hall] | 1.82 ± 0.067 kcal/mol | 1.78 ± 0.27 kcal/mol | 1.99 ± 0.25 kcal/mol
SAGGSAKDILDQLKISDVHESNGMRTITLEMPGNNLPPDEIREIFEELGYEVEINPKNGRITFTIPSAGGSA [r15_599_TrROS] | 2.09 ± 0.051 kcal/mol | 1.83 ± 0.02 kcal/mol | 1.95 ± 0.039 kcal/mol
SAGGSAKEEIRLVIEVDGKLIEITIPKDKITKVEFDKETGKITITVKVNGKELKLVFTDGKAKLVESAGGSA [r15_598_TrROS_Hall] | 2.27 ± 0.14 kcal/mol | 2.6 ± 0.12 kcal/mol | 2.47 ± 0.17 kcal/mol
SAGGSAKEIKAEVKVDPETGTVTVKVYYDGKLVAEATATVEPNGEIKEVNFFFEVDPETGKLIVTGSAGGSA [r15_770_TrMRF] | 2.73 ± 0.12 kcal/mol | 3.07 ± 0.059 kcal/mol | 2.97 ± 0.066 kcal/mol
SAGGSAKEIKIEVVKVEYDKETKKVTVTLKIEVNGKKIEIKIEVDMTPEEVEEKVKKLAEELLKKLSAGGSA [r15_979_TrROS_Hall] | 3.15 ± 0.2 kcal/mol | 3.03 ± 0.14 kcal/mol | 3.14 ± 0.25 kcal/mol
SAGGSAKEIKPGEKIKVRNKETGKWFEATVTEVKKLENGELYVKVEVTIDGKTYTVTIPLKDIEVVSAGGSA [r15_62_TrROS_Hall] | 4.3 ± 0.37 kcal/mol | 4.72 ± 0.3 kcal/mol | 4.88 ± 0.55 kcal/mol
SAGGSAKEIKVEITYDPETNTITIKVYKDGKLVAEMTMKIEVNGKLIEVKVTLYLDPKTKKLVVKPSAGGSA [r15_770_TrROS_Hall] | 1.94 ± 0.081 kcal/mol | 3.3 ± 0.048 kcal/mol | 2.96 ± 0.13 kcal/mol
